B1: Ribonuclease, P00648 (parent)
chain: MMKMEGIALKKRLSWISVCLLVLVSAAGMLFSTAAKTETSSHKAHTEAQVINTFDGVADYLQTYHKLPDNYITKSEAQALGWVASKGNLADVAPGKSIGGDIFSNREGKLPGKSGRTWREADINYTSGFRNSDRILYSSDWLIYKTTDHYQTFTKIR

Variants of B1 are the subject of this series. The following applies: Bacillus amyloliquefaciens; pH 6.3; 25 °C; Urea; Fluorescence; MES-NaOH 450 mM; reversible: yes; structure 1BNI; whole UniProt chain shown.

As to D101N, the “ddG of mutation (higher = less stable)” value amounted to 1.78 kcal/mol, the denaturant m value was found to be 2.11 kcal/mol/M, the “denaturant midpoint (higher = more stable)” value (“denaturant midpoint” for short) is 3.3 M and the unfolding free energy was 7.04 kcal/mol.

Take D101A: the “ddG of mutation (higher = less stable)” value amounted to 2.86 kcal/mol, the denaturant m value was found to be 1.95 kcal/mol/M, the “denaturant midpoint” value was found to be 3 M and the unfolding free energy was 5.96 kcal/mol.

For S139A, the “ddG of mutation (higher = less stable)” value is 3.22 kcal/mol, the denaturant m value worked out at 1.78 kcal/mol/M, the “denaturant midpoint” value amounted to 3.1 M and the unfolding free energy is 5.6 kcal/mol.

As to V92A, the “ddG of mutation (higher = less stable)” value was found to be 1.17 kcal/mol, the denaturant m value is 2.08 kcal/mol/M, the “denaturant midpoint” value stood at 3.6 M and the unfolding free energy turned out to be 7.65 kcal/mol.

For V92T, the “ddG of mutation (higher = less stable)” value came out at 2.22 kcal/mol, the denaturant m value is 1.99 kcal/mol/M, the “denaturant midpoint” value stood at 3.3 M and the unfolding free energy is 6.6 kcal/mol.

For I51V, the “ddG of mutation (higher = less stable)” value was determined as 0.81 kcal/mol, the denaturant m value was determined as 1.88 kcal/mol/M, the “denaturant midpoint” value stood at 4.2 M and the unfolding free energy was 8.01 kcal/mol.

As for I51A, the “ddG of mutation (higher = less stable)” value was determined as 0.75 kcal/mol, the denaturant m value worked out at 2.08 kcal/mol/M, the “denaturant midpoint” value turned out to be 3.8 M and the unfolding free energy turned out to be 8.07 kcal/mol.

On to E76G, for which the “ddG of mutation (higher = less stable)” value was determined as 2.05 kcal/mol, the denaturant m value amounted to 1.84 kcal/mol/M, the “denaturant midpoint” value came out at 3.6 M and the unfolding free energy came to 6.77 kcal/mol.

Q78S: the “ddG of mutation (higher = less stable)” value was -0.07 kcal/mol, the denaturant m value was found to be 2 kcal/mol/M, the “denaturant midpoint” value came out at 4.4 M and the unfolding free energy stood at 8.89 kcal/mol.

With I98A, the “ddG of mutation (higher = less stable)” value turned out to be 4.72 kcal/mol, the denaturant m value is 1.9 kcal/mol/M, the “denaturant midpoint” value was determined as 2.1 M and the unfolding free energy amounted to 4.1 kcal/mol.

With I98V, the “ddG of mutation (higher = less stable)” value stood at 1.13 kcal/mol, the denaturant m value turned out to be 2.11 kcal/mol/M, the “denaturant midpoint” value was determined as 3.6 M and the unfolding free energy amounted to 7.69 kcal/mol.

Turning to N105A, the “ddG of mutation (higher = less stable)” value was found to be 2 kcal/mol, the denaturant m value was found to be 1.97 kcal/mol/M, the “denaturant midpoint” value came to 3.4 M and the unfolding free energy is 6.82 kcal/mol.

With N105D, the “ddG of mutation (higher = less stable)” value was -0.31 kcal/mol, the denaturant m value came out at 1.9 kcal/mol/M, the “denaturant midpoint” value was 4.8 M and the unfolding free energy was found to be 9.13 kcal/mol.

As to D55A, the “ddG of mutation (higher = less stable)” value came to 0.85 kcal/mol, the denaturant m value came to 1.94 kcal/mol/M, the “denaturant midpoint” value was found to be 4.1 M and the unfolding free energy came to 7.97 kcal/mol.

For the variant K109R, the “ddG of mutation (higher = less stable)” value amounted to 0.32 kcal/mol, the denaturant m value turned out to be 1.95 kcal/mol/M, the “denaturant midpoint” value stood at 4.3 M and the unfolding free energy amounted to 8.5 kcal/mol.

With L61A, the “ddG of mutation (higher = less stable)” value was 4.53 kcal/mol, the denaturant m value turned out to be 1.87 kcal/mol/M, the “denaturant midpoint” value came to 2.2 M and the unfolding free energy is 4.29 kcal/mol.

With T63S, the “ddG of mutation (higher = less stable)” value stood at 1.36 kcal/mol, the denaturant m value amounted to 2.03 kcal/mol/M, the “denaturant midpoint” value worked out at 3.6 M and the unfolding free energy came out at 7.46 kcal/mol.

Regarding T63R, the “ddG of mutation (higher = less stable)” value is -0.74 kcal/mol, the denaturant m value stood at 1.99 kcal/mol/M, the “denaturant midpoint” value came out at 4.8 M and the unfolding free energy was 9.56 kcal/mol.

For the variant I135A, the “ddG of mutation (higher = less stable)” value came to 4.02 kcal/mol, the denaturant m value came out at 1.94 kcal/mol/M, the “denaturant midpoint” value amounted to 2.4 M and the unfolding free energy amounted to 4.8 kcal/mol.

Take I135V: the “ddG of mutation (higher = less stable)” value was found to be 1.64 kcal/mol, the denaturant m value is 1.85 kcal/mol/M, the “denaturant midpoint” value came out at 3.8 M and the unfolding free energy was found to be 7.18 kcal/mol.

In the case of T73G, the “ddG of mutation (higher = less stable)” value came out at 1.01 kcal/mol, the denaturant m value came out at 2.03 kcal/mol/M, the “denaturant midpoint” value was found to be 3.8 M and the unfolding free energy was 7.81 kcal/mol.

Consider T73A, for which the “ddG of mutation (higher = less stable)” value is 1.67 kcal/mol, the denaturant m value was 2 kcal/mol/M, the “denaturant midpoint” value is 3.5 M and the unfolding free energy is 7.15 kcal/mol.

V57T: the “ddG of mutation (higher = less stable)” value worked out at 1.99 kcal/mol, the denaturant m value turned out to be 2.07 kcal/mol/M, the “denaturant midpoint” value amounted to 3.3 M and the unfolding free energy was 6.83 kcal/mol.

Turning to V57A, the “ddG of mutation (higher = less stable)” value is 3.47 kcal/mol, the denaturant m value worked out at 1.89 kcal/mol/M, the “denaturant midpoint” value came to 2.8 M and the unfolding free energy stood at 5.35 kcal/mol.

Regarding K74G, the “ddG of mutation (higher = less stable)” value was found to be 0.38 kcal/mol, the denaturant m value is 1.94 kcal/mol/M, the “denaturant midpoint” value came out at 4.3 M and the unfolding free energy was found to be 8.44 kcal/mol.

Regarding T53G, the “ddG of mutation (higher = less stable)” value stood at 0.61 kcal/mol, the denaturant m value is 2.08 kcal/mol/M, the “denaturant midpoint” value is 3.9 M and the unfolding free energy amounted to 8.21 kcal/mol.

As for T53A, the “ddG of mutation (higher = less stable)” value came out at 2.02 kcal/mol, the denaturant m value was determined as 1.97 kcal/mol/M, the “denaturant midpoint” value came to 3.4 M and the unfolding free energy turned out to be 6.8 kcal/mol.

Regarding N131A, the “ddG of mutation (higher = less stable)” value amounted to 1.59 kcal/mol, the denaturant m value came out at 2.04 kcal/mol/M, the “denaturant midpoint” value was determined as 3.5 M and the unfolding free energy turned out to be 7.23 kcal/mol.

On to D59A R157A, for which the “ddG of mutation (higher = less stable)” value was -0.39 kcal/mol, the denaturant m value is 1.93 kcal/mol/M, the “denaturant midpoint” value was found to be 4.78 M and the unfolding free energy was 9.21 kcal/mol.

As to D59A, the “ddG of mutation (higher = less stable)” value stood at 0.39 kcal/mol, the denaturant m value was determined as 1.91 kcal/mol/M, the “denaturant midpoint” value was 4.4 M and the unfolding free energy turned out to be 8.43 kcal/mol.

Values taken from FireProtDB (doi:10.1016/0022-2836(92)90562-x).
